According to the supplement of paper PMC10567573:

B1: TOR1AIP2 (parent)
chain: SPGHSSAGQEGEDTLRRRLLAPEA

Variants of: B1
Test: protein stability index of a GFP-peptide fusion (GPS, HEK-293T) (PSI 1-6); higher = more stable
Conditions: c terminus: a fixed tail appended
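Also: lentivirally expressed fusions sorted by FACS into six bins by GFP to DsRed ratio, PSI derived from sequencing read proportions per bin multiplied by bin number.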

Point of comparison: SPGHSSAGQEGGDTLRRRLLAPEA [E12G], protein stability index 3.73. Against it:
- SPGHSSAIQEGEDTLRRRLLAPEA [G8I] — higher, 4.53
- SPGHSSAHQEGEDTLRRRLLAPEA [G8H] — higher, 4.69
- SPGHSSANQEGEDTLRRRLLAPEA [G8N] — higher, 4.05
- SPGHSSARQEGEDTLRRRLLAPEA [G8R] — higher, 4
- SPGHSSAYQEGEDTLRRRLLAPEA [G8Y] — higher, 3.79
- SPGHSSAQQEGEDTLRRRLLAPEA [G8Q] — higher, 4.33
- SPGHSSAPQEGEDTLRRRLLAPEA [G8P] — higher, 4.53
- SPGHSSAMQEGEDTLRRRLLAPEA [G8M] — higher, 4.05
- SPGHSSADQEGEDTLRRRLLAPEA [G8D] — higher, 4.51
- SPGHSSAAQEGEDTLRRRLLAPEA [G8A] — higher, 4.24
- SPGHSSAVQEGEDTLRRRLLAPEA [G8V] — higher, 4.43
- SPGHSSAKQEGEDTLRRRLLAPEA [G8K] — higher, 4.19
- SPGHSSALQEGEDTLRRRLLAPEA [G8L] — higher, 4.21
- SPGHSSAEQEGEDTLRRRLLAPEA [G8E] — higher, 4.5
- SPGHSSACQEGEDTLRRRLLAPEA [G8C] — higher, 4.46
- SPGHSSATQEGEDTLRRRLLAPEA [G8T] — higher, 4.61
- SPGHSSASQEGEDTLRRRLLAPEA [G8S] — higher, 4.42
- SPGHSSAFQEGEDTLRRRLLAPEA [G8F] — lower, 3.34
- SPGHSSAWQEGEDTLRRRLLAPEA [G8W] — higher, 4.19
- SPGHSSAGQEGEDTYRRRLLAPEA [L15Y] — higher, 4.89
- SPGHSSAGQEGEDTKRRRLLAPEA [L15K] — higher, 4.96
- SPGHSSAGQEGEDTRRRRLLAPEA [L15R] — higher, 5.01
- SPGHSSAGQEGEDTWRRRLLAPEA [L15W] — higher, 3.92
- SPGHSSAGQEGEDTVRRRLLAPEA [L15V] — higher, 4.93
- SPGHSSAGQEGEDTGRRRLLAPEA [L15G] — higher, 5.44
- SPGHSSAGQEGEDTHRRRLLAPEA [L15H] — higher, 5.13
- SPGHSSAGQEGEDTPRRRLLAPEA [L15P] — higher, 5.23
- SPGHSSAGQEGEDTNRRRLLAPEA [L15N] — higher, 5.49
- SPGHSSAGQEGEDTQRRRLLAPEA [L15Q] — higher, 4.98
- SPGHSSAGQEGEDTTRRRLLAPEA [L15T] — higher, 5.31
- SPGHSSAGQEGEDTFRRRLLAPEA [L15F] — higher, 4.3
- SPGHSSAGQEGEDTSRRRLLAPEA [L15S] — higher, 5.16
- SPGHSSAGQEGEDTDRRRLLAPEA [L15D] — higher, 5.7
- SPGHSSAGQEGEDTERRRLLAPEA [L15E] — higher, 5.35
- SPGHSSAGQEGEDTARRRLLAPEA [L15A] — higher, 5.47
- SPGHSSAGQEGEDTCRRRLLAPEA [L15C] — higher, 3.98
- SPGHSSAGQEGEDTMRRRLLAPEA [L15M] — higher, 4.79
- SPGHSSAGQEGEDTIRRRLLAPEA [L15I] — higher, 4.53
- SPGHSSAGQEGHDTLRRRLLAPEA [E12H] — the same, 3.73
- SPGHSSAGQEGKDTLRRRLLAPEA [E12K] — higher, 3.98
- SPGHSSAGQEGMDTLRRRLLAPEA [E12M] — lower, 3.53
- SPGHSSAGQEGRDTLRRRLLAPEA [E12R] — higher, 3.84
- SPGHSSAGQEGNDTLRRRLLAPEA [E12N] — higher, 3.81
- SPGHSSAGQEGYDTLRRRLLAPEA [E12Y] — lower, 3.22
- SPGHSSAGQEGFDTLRRRLLAPEA [E12F] — lower, 3.1
- SPGHSSAGQEGLDTLRRRLLAPEA [E12L] — lower, 3.33
- SPGHSSAGQEGQDTLRRRLLAPEA [E12Q] — lower, 3.38
- SPGHSSAGQEGWDTLRRRLLAPEA [E12W] — lower, 3.19
- SPGHSSAGQEGIDTLRRRLLAPEA [E12I] — the same, 3.73
- SPGHSSAGQEGDDTLRRRLLAPEA [E12D] — higher, 3.97
- SPGHSSAGQEGVDTLRRRLLAPEA [E12V] — lower, 3.22
- SPGHSSAGQEGSDTLRRRLLAPEA [E12S] — lower, 3.3
- SPGHSSAGQEGCDTLRRRLLAPEA [E12C] — higher, 4
- SPGHSSAGQEGADTLRRRLLAPEA [E12A] — lower, 3.48
- SPGHSSAGQEGTDTLRRRLLAPEA [E12T] — lower, 3.6
- SPGHSSAGQEGPDTLRRRLLAPEA [E12P] — lower, 3.59
- SPGHSSAGQEGECTLRRRLLAPEA [D13C] — higher, 4.05
- SPGHSSAGQEGEITLRRRLLAPEA [D13I] — higher, 3.88
- SPGHSSAGQEGEQTLRRRLLAPEA [D13Q] — higher, 4.09
- SPGHSSAGQEGEVTLRRRLLAPEA [D13V] — higher, 4.15
- SPGHSSAGQEGEPTLRRRLLAPEA [D13P] — higher, 4.53
- SPGHSSAGQEGEATLRRRLLAPEA [D13A] — lower, 3.19
- SPGHSSAGQEGEWTLRRRLLAPEA [D13W] — lower, 2.96
- SPGHSSAGQEGELTLRRRLLAPEA [D13L] — higher, 3.77
- SPGHSSAGQEGEMTLRRRLLAPEA [D13M] — lower, 3.06
- SPGHSSAGQEGESTLRRRLLAPEA [D13S] — lower, 3.67
- SPGHSSAGQEGEETLRRRLLAPEA [D13E] — higher, 4.73
- SPGHSSAGQEGERTLRRRLLAPEA [D13R] — lower, 3.32
- SPGHSSAGQEGEYTLRRRLLAPEA [D13Y] — lower, 2.8
- SPGHSSAGQEGEKTLRRRLLAPEA [D13K] — higher, 4.52
- SPGHSSAGQEGEFTLRRRLLAPEA [D13F] — lower, 3.02
- SPGHSSAGQEGENTLRRRLLAPEA [D13N] — higher, 4.27
- SPGHSSAGQEGEGTLRRRLLAPEA [D13G] — higher, 4.1
- SPGHSSAGQEGEHTLRRRLLAPEA [D13H] — higher, 4.31
- SPGHSSAGQEGETTLRRRLLAPEA [D13T] — lower, 3.65
- SPGHSSAGQEGEDTLRCRLLAPEA [R17C] — higher, 4.51
- SPGHSSAGQEGEDTLRDRLLAPEA [R17D] — higher, 5.46
- SPGHSSAGQEGEDTLRARLLAPEA [R17A] — higher, 4.63
- SPGHSSAGQEREDTLRRRLLAPEA [G11R] — higher, 4.64
- SPGHSSAGQECEDTLRRRLLAPEA [G11C] — higher, 3.88
- SPGHSSAGQEMEDTLRRRLLAPEA [G11M] — higher, 4.15
- SPGHSSAGQEKEDTLRRRLLAPEA [G11K] — higher, 4.5
- SPGHSSAGQENEDTLRRRLLAPEA [G11N] — higher, 4.46
- SPGHSSAGQEWEDTLRRRLLAPEA [G11W] — lower, 3.6
- SPGHSSAGQEPEDTLRRRLLAPEA [G11P] — higher, 4.05
- SPGHSSAGQEQEDTLRRRLLAPEA [G11Q] — higher, 4.38
- SPGHSSAGQESEDTLRRRLLAPEA [G11S] — higher, 4.48
- SPGHSSAGQEEEDTLRRRLLAPEA [G11E] — higher, 4.6
- SPGHSSAGQEYEDTLRRRLLAPEA [G11Y] — lower, 3.39
- SPGHSSAGQEFEDTLRRRLLAPEA [G11F] — lower, 3.49
- SPGHSSAGQEIEDTLRRRLLAPEA [G11I] — higher, 3.82
- SPGHSSAGQEDEDTLRRRLLAPEA [G11D] — higher, 4.64
- SPGHSSAGQELEDTLRRRLLAPEA [G11L] — higher, 4.13
